PMC3711648

Target: human mutant SOD1 G93A (Cu/Zn superoxide dismutase) (human)
Test: SEC

- stoichiometry N: 2
Substance: human mutant SOD1 G93A (Cu/Zn superoxide dismutase) (natural protein)
